Data from patent EP2469278A1, “Reagentless fluorescent biosensors from nanofitins, rational design methods to create reagentless fluorescent biosensors and methods of their use” (Institut Pasteur, priority 2010, dated 2012).

Experiments:
[1] = biological target: T1, hen egg-white lysozyme (hen, UniProt P00698 19-147); assay: from Kd in solution: fluorescence titration of conjugate against competition Biacore of H4S(wt)
T1 construct: also called HEL

[2] = biological target: T1, hen egg-white lysozyme; assay: fluorescence titration in solution, 0.3 µM conjugate, buffer C, 25 °C
[3] = biological target: T2, hen egg-white lysozyme (HEL) (Gallus gallus, UniProt P00698); assay: Titration of H4S conjugates with HEL, monitored by fluorescence; format: binding; conditions: for ΔΔG: decrease of free energy of interaction with HEL on fluorophore conjugation, from Kd of conjugate versus H4S(wt); for sr: relative sensitivity of the conjugate at a fixed concentration of 0.3 µM (Equation 8), HEL; for ΔF∞/F0: maximal variation of F at λmax on HEL binding
T2 construct: hen egg-white lysozyme (HEL); purchased Sigma
Description: The binding and fluorescence experiments were performed at equilibrium as if the preparations of conjugates were homogeneous, i. e. as if yc = 1. The binding reactions were conducted by incubating 0.3 µM of conjugate with variable concentrations of the HEL or BSA antigens in a volume of 1 mL, for 30 min in the dark with gentle shaking. The reactions were carried out in Buffer C or in a mixture v:(1-v) of calf serum and Buffer C as indicated in example 2.
The conjugate (or biosensor) B and antigen A form a 1:1 complex B:A according to the reaction: B + A↔B:A [formula] At equilibrium, the concentration [B:A] of the complex is given by the equation: [B:A] = 0.5{[B]0+[A]0+Kd-(((([B]0+[A]0+Kd))^2-4[B]0[A]0))^(1/2)} [formula] where Kd is the dissociation constant, and [A]0 and [B]0 are the total concentrations of A and B, respectively (Renard et al., 2003).
The fluorescence of the IANBD conjugates was excited at 485 nm (5 nm slit width) and its intensity measured between 520 and 550 nm (20 nm slit width) with a FP-6300 spectrofluorometer (Jasco). The signal of HEL alone or BSA alone was measured in an independent experiment and subtracted from the global signal of the binding mixture to give the specific fluorescence intensity F of each conjugate. The intensity F at a given value of [A]0 satisfies the following equation: (F-F0)/F0 = ΔF/F0 = (ΔF∞/F0)([B:A]/[B]0) [formula] where F0 and F∞ are the values of F at zero and saturating concentrations of A (Renard et al., 2003). The values of ΔF∞/F0, Kd, and [B]0 could be determined by fitting Equation 5, in which [B:A] is given by Equation 4, to the experimental values of ΔF/F0, measured in a titration experiment. The fittings were performed with the Kaleidagraph software (Synergy Software).
The sensitivity s and relative sensitivity sr of a conjugate can be defined by the following equations for the low values of [A]0, i. e. in the initial part of the titration curve: ΔF = s[A]0 [formula] ΔF/F0 = sr [A]0 /[B]0 [formula] s and sr can be expressed as functions of characteristic parameters of the conjugate: sr = (ΔF∞/F0)([B]0/(Kd+[B]0)) [formula] s = fb sr [formula] where fb = F0/[B]0 is the molar fluorescence of the free conjugate (Renard and Bedouelle, 2004). Equation 8 implies that sr is maximal when the biosensor B is present at a concentration [B]0 >> Kd, as every newly titrated molecule A then forms a complex. Equation 6 implies that the lower limit of detection δ[A]0 of the conjugate is linked to the lower limit of measurement of the spectrofluorometer δF by the following equations: δ[A]0 = s^-1 δF = sr^-1 [B]0 (δF/F0) [formula]

[4] = 0.3 µM conjugate, buffer C, 25 °C, value ± SE of fitting

Molecule | ΔΔG [3] | sr ([3]; buffer C) | further results
H4S conjugate, IANBD fluorophore coupled at position Asn9 (designed binder, Cys at position 9 (H4S numbering) coupled to IANBD ester (ANBD)) MRGSHHHHHHGSVKVKFFWCGEEKEVDTSKIVWVKRAGKSVLFIYDDNGKNGYGDVTEKDAPKELLDMLARAEREKKLN | – | – | ΔΔG (conjugate against H4S(wt)) [1]: ≤ 0.5 kcal/mol; Kd [2]: 7 nM; ΔF∞/F0 (maximal relative variation of fluorescence on HEL binding) [2]: 0.52
H4S conjugate, IANBD fluorophore coupled at position Asn40 (designed binder, Cys at position 40 (H4S numbering) coupled to IANBD ester (ANBD)) MRGSHHHHHHGSVKVKFFWNGEEKEVDTSKIVWVKRAGKSVLFIYDDNGKCGYGDVTEKDAPKELLDMLARAEREKKLN | – | – | ΔΔG (conjugate against H4S(wt)) [1]: ≥ 1.5 kcal/mol; Kd [2]: 2000 nM; ΔF∞/F0 (maximal relative variation of fluorescence on HEL binding) [2]: 0.57
H4S conjugate, IANBD fluorophore coupled at position Asp44 (designed binder, Cys at position 44 (H4S numbering) coupled to IANBD ester (ANBD)) MRGSHHHHHHGSVKVKFFWNGEEKEVDTSKIVWVKRAGKSVLFIYDDNGKNGYGCVTEKDAPKELLDMLARAEREKKLN | – | – | ΔΔG (conjugate against H4S(wt)) [1]: ≥ 1.5 kcal/mol; Kd [2]: 623 nM; ΔF∞/F0 (maximal relative variation of fluorescence on HEL binding) [2]: 1.5
H4S conjugate, IANBD fluorophore coupled at position Leu31 (designed binder, Cys at position 31 (H4S numbering) coupled to IANBD ester (ANBD)) MRGSHHHHHHGSVKVKFFWNGEEKEVDTSKIVWVKRAGKSVCFIYDDNGKNGYGDVTEKDAPKELLDMLARAEREKKLN | – | – | ΔΔG (conjugate against H4S(wt)) [1]: ≥ 1.5 kcal/mol; Kd [2]: 8360 nM; ΔF∞/F0 (maximal relative variation of fluorescence on HEL binding) [2]: 4.9
H4S conjugate, IANBD fluorophore coupled at position Lys28 (designed binder, Cys at position 28 (H4S numbering) coupled to IANBD ester (ANBD)) MRGSHHHHHHGSVKVKFFWNGEEKEVDTSKIVWVKRAGCSVLFIYDDNGKNGYGDVTEKDAPKELLDMLARAEREKKLN | – | – | ΔΔG (conjugate against H4S(wt)) [1]: ≤ 0.5 kcal/mol; Kd [2]: 28 nM; ΔF∞/F0 (maximal relative variation of fluorescence on HEL binding) [2]: 0.26
Phe7: H4S conjugate: residue Phe7 changed into cysteine and coupled with the IANBD fluorophore (conjugate) MRGSHHHHHHGSVKVKFCWNGEEKEVDTSKIVWVKRAGKSVLFIYDDNGKNGYGDVTEKDAPKELLDMLARAEREKKLN | ≤ 0.5 kcal/mol | 0.22 | –
Asn9: H4S conjugate: residue Asn9 changed into cysteine and coupled with the IANBD fluorophore (conjugate) MRGSHHHHHHGSVKVKFFWCGEEKEVDTSKIVWVKRAGKSVLFIYDDNGKNGYGDVTEKDAPKELLDMLARAEREKKLN | ≤ 0.5 kcal/mol | – | –
Lys28: H4S conjugate: residue Lys28 changed into cysteine and coupled with the IANBD fluorophore (conjugate) MRGSHHHHHHGSVKVKFFWNGEEKEVDTSKIVWVKRAGCSVLFIYDDNGKNGYGDVTEKDAPKELLDMLARAEREKKLN | ≤ 0.5 kcal/mol | 0.24 | –
Ser29: H4S conjugate: residue Ser29 changed into cysteine and coupled with the IANBD fluorophore (conjugate) MRGSHHHHHHGSVKVKFFWNGEEKEVDTSKIVWVKRAGKCVLFIYDDNGKNGYGDVTEKDAPKELLDMLARAEREKKLN | ≤ 0.5 kcal/mol | – | –
Thr46: H4S conjugate: residue Thr46 changed into cysteine and coupled with the IANBD fluorophore (conjugate) MRGSHHHHHHGSVKVKFFWNGEEKEVDTSKIVWVKRAGKSVLFIYDDNGKNGYGDVCEKDAPKELLDMLARAEREKKLN | ≤ 0.5 kcal/mol | 0.27 | –
Trp22: H4S conjugate: residue Trp22 changed into cysteine and coupled with the IANBD fluorophore (conjugate) MRGSHHHHHHGSVKVKFFWNGEEKEVDTSKIVCVKRAGKSVLFIYDDNGKNGYGDVTEKDAPKELLDMLARAEREKKLN | ≥ 1.5 kcal/mol | 0.06 | ΔF∞/F0 [3, 4]: 0.3±0.1
Leu31: H4S conjugate: residue Leu31 changed into cysteine and coupled with the IANBD fluorophore (conjugate) MRGSHHHHHHGSVKVKFFWNGEEKEVDTSKIVWVKRAGKSVCFIYDDNGKNGYGDVTEKDAPKELLDMLARAEREKKLN | ≥ 1.5 kcal/mol | 0.17 | –
Ile33: H4S conjugate: residue Ile33 changed into cysteine and coupled with the IANBD fluorophore (conjugate) MRGSHHHHHHGSVKVKFFWNGEEKEVDTSKIVWVKRAGKSVLFCYDDNGKNGYGDVTEKDAPKELLDMLARAEREKKLN | ≥ 1.5 kcal/mol | nm | Kd ([3]; fluorescence titration with HEL, 0.3 µM conjugate, buffer C, 25 °C, value ± SE of fitting): nM; ΔF∞/F0 [3, 4]: nm
Asn40: H4S conjugate: residue Asn40 changed into cysteine and coupled with the IANBD fluorophore (conjugate) MRGSHHHHHHGSVKVKFFWNGEEKEVDTSKIVWVKRAGKSVLFIYDDNGKCGYGDVTEKDAPKELLDMLARAEREKKLN | ≥ 1.5 kcal/mol | 0.07 | –
Tyr42: H4S conjugate: residue Tyr42 changed into cysteine and coupled with the IANBD fluorophore (conjugate) MRGSHHHHHHGSVKVKFFWNGEEKEVDTSKIVWVKRAGKSVLFIYDDNGKNGCGDVTEKDAPKELLDMLARAEREKKLN | ≥ 1.5 kcal/mol | 0.72 | –
Asp44: H4S conjugate: residue Asp44 changed into cysteine and coupled with the IANBD fluorophore (conjugate) MRGSHHHHHHGSVKVKFFWNGEEKEVDTSKIVWVKRAGKSVLFIYDDNGKNGYGCVTEKDAPKELLDMLARAEREKKLN | ≥ 1.5 kcal/mol | 0.49 | –
Lys39: H4S conjugate: residue Lys39 changed into cysteine and coupled with IANBD (SEQ ID NO: 63) (conjugate, IANBD fluorophore on Cys39) MRGSHHHHHHGSVKVKFFWNGEEKEVDTSKIVWVKRAGKSVLFIYDDNGCNGYGDVTEKDAPKELLDMLARAEREKKLN | – | 1.16 | –
Trp8: H4S conjugate: residue Trp8 changed into cysteine and coupled with IANBD (SEQ ID NO: 59) (conjugate, IANBD fluorophore on Cys8) MRGSHHHHHHGSVKVKFFCNGEEKEVDTSKIVWVKRAGKSVLFIYDDNGKNGYGDVTEKDAPKELLDMLARAEREKKLN | – | 0.90 | –
Val21: H4S conjugate: residue Val21 changed into cysteine and coupled with IANBD (SEQ ID NO: 60) (conjugate, IANBD fluorophore on Cys21) MRGSHHHHHHGSVKVKFFWNGEEKEVDTSKICWVKRAGKSVLFIYDDNGKNGYGDVTEKDAPKELLDMLARAEREKKLN | – | 3.17 | –
